From patent US20210261671A1 (HARPOON THERAPEUTICS, published 2021) come the findings set out here.

First the molecules themselves.
B1: FLL76 (VHH)
VHH: QVQLQESGGGLVQAGGSLRLSCAASGGAFSSYVMGWFRQAPGKEREFVAAVISWSGRITDYADSVKGRFSISRDNAKSTVYLQMNNLKPEDTAVYYCAAKTGMYIDLRTSTFDYWGQGTQVTVSS
notes: llama anti-FLT3 variable domain; E. coli periplasmic extract
B2: FLL154 (VHH)
VHH: QVQLQESGGGLVQAGGSLRLSCAVSGRTFSGFGTGWFRQAPGKEREFVAAISWSGGRTHYADSVKGRFTISRDNAKNTVYLQMNSLKPEDTAVYYCAGQVARAYDGNWYSRGDYWGQGTQVTVSS
notes: as for B1
B3: FLL74 (VHH)
VHH: B2 VHH with A23R, V24F, S54A, A61E, G98V, A101S, N107I, R111G
notes: as for B1
B4: FLL6 (VHH)
VHH: B2 VHH with S54D, K76A, A101S, G106S, N107M, S110G, G112D
notes: as for B1
B5: FLL112 (VHH)
VHH: B2 VHH with S54A, A61E, S71H, G98A, A101S, N107I, R111G
notes: as for B1
B6: FLL83 (VHH)
VHH: B2 VHH with R57T, K76E, Q82E, Y95I, A101S, G106S, G112D
notes: as for B1
B7: FLL94 (VHH)
VHH: B2 VHH with G42E, S54D, V93I, G106T, N107R
notes: as for B1
B8: FLL99 (VHH)
VHH: B2 VHH with S54D, S63F, G98A, G106S, N107R, R111G
notes: as for B1
B9: FLL38 (VHH)
VHH: B2 VHH with I51V, R57T, H59E, Y60I, N84S, E89G, G106S, N107R
notes: as for B1
B10: FLL43 (VHH)
VHH: QVQLQESGGGLVQPGGSLTLSCTASGSTFSINHFAWYRQAPGKQRELVAFISSDGRSTDVESVKGRFTISGDNDKNTAYLQMNGLKPEDTAVYYCYYRGSWGQGTQVTVSS
notes: as for B1
B11: FLL823 (VHH)
VHH: QVQLQESGGGVVQVGGSLRLSCAASGGTFGYYAVGWFRQAPGKEREFVAAVTWNGAYLYSDPVKGRFTISRDNAKNTVYLQMNSLKSEDTAVYYCGLDRWSAVVESTPSTRGQGTQVTVSS
notes: as for B1
B12: FLL39 (VHH)
VHH: QVQLQESGGGLVQAGGSLRLSCAASGLTSSTYRMAWFRQAPGKEREFAAGISYSADSGGSTNYADSVKGRFTISRDNAKNTVYLQMSSLKPEDTAVYYCAAGRYSGTYNSPYSSSYVYWGQGTQVTVSS
notes: as for B1
B13: FLL45 (VHH)
VHH: QVQLQESGGGLVQAGGSLRLSCAASGGTFSSSAMGWFRQAPGKEREFVATITQNDVPTYYTHSVKGRFTISRDNAKNTMYLQMNSLKPEDTAVYYCAQRVAQASGWRTTIKDYGYWGQGTQVTVSS
notes: as for B1
B14: FLL177 (VHH)
VHH: QVQLQESGGGLVQTGGSLRLSCAASGSTFSRNTMGWFRQAPGKERVFVLGISWSGIRSYYLDSAKARFTISRDNAKNTVYLQMNSLRPEDTAVYYCAAQEGSSPGPYKYWGQGTQVTVSS
notes: as for B1
B15: FLL15 (VHH)
VHH: QVQLQESGGGLVQAGGSLSLSCAASEGTISHAAMGWFRQAPGKERQFVAYDTWTGGSTNYADSVKDRFTITGDHAKNTVYLQMNSLKPEDTGVYYCAVRGRYSASYTYTNPASYKYWGQGTQVTVSS
notes: as for B1
B16: FLL822 (VHH)
VHH: QVQLQESGGGSVQAGGSLRLSCTASGRTFTDYTMGWFRQAPGKEREFMLGISSNGYRRYYTGSMKDRFTISRDNVKKTVYLQMNDLKPEDTAVYYCAASEDHGAPRYDYWGQGTQVTVSS
notes: as for B1
B17: FLL125 (VHH)
VHH: QVQLQESGGGLVQAGGSLRLSCAASGSTFSRNYIDWYRQAPGKQREWVAQITSGGNTHYEPSLKGRFTISRDNAKNTAYLQMNSLKPEDTAVYYCRILDYWGQGTQVTVSS
notes: as for B1
B18: FLL21 (VHH)
VHH: B17 VHH with A14P, R19T
notes: as for B1
B19: FLL55 (VHH)
VHH: B17 VHH with G54A
notes: as for B1
B20: FLL86 (VHH)
VHH: B17 VHH with A14P, G16D, S17P
notes: as for B1
B21: FLL158 (VHH)
VHH: B17 VHH with A14P, S30G
notes: as for B1
B22: FLL57 (VHH)
VHH: B17 VHH with R31K
notes: as for B1
B23: FLL62 (VHH)
VHH: B17 VHH with F29S
notes: as for B1
B24: FLL79 (VHH)
VHH: B17 VHH with A23S
notes: as for B1

Where a chain is given by its changes, count along the chain named.

One test addresses T1, human FLT3 protein (human, UniProt P36888 27-541, limits assumed).
T1 construct: protein coated in the screening ELISA; also called ELISA FLT3
Briefly: colorimetric ELISA, periplasmic extract. An excerpt: (§1) Llamas were immunized with purified FLT3 protein expressed in Expi293 cells. A phage display library for expression of heavy variable antibody domains was constructed from circulating B cells isolated from the immunized llamas (See van der Linden, de Geus, Stok, Bos, van Wassenaar, Verrips, and Frenken. 2000. J Immunol Methods 240:185-195). Phage clones were screened for binding to FLT3 by expressing llama anti-FLT3 proteins in E. coli, preparing periplasmic extracts, and performing colorimetric ELISAs.
In general terms: In an ELISA, binding on a coated surface is turned into a signal by an enzyme label.
On to B1, for which the “ELISA FLT3 (absorbance)” value was 0.5 absorbance.
B2: the “ELISA FLT3 (absorbance)” value amounted to 4 absorbance.
As to B3, the “ELISA FLT3 (absorbance)” value was 3.9 absorbance.
Take B4: the “ELISA FLT3 (absorbance)” value was 3.8 absorbance.
For the molecule B5, the “ELISA FLT3 (absorbance)” value was determined as 3.6 absorbance.
Same read-out and setting: in the case of B6 it was 3.8 absorbance; in that of B7, 4 absorbance.
Same read-out and setting: under B8 stands 3.7 absorbance; under B9, 4 absorbance; under B10, 2 absorbance.
On to B11, for which the “ELISA FLT3 (absorbance)” value is 3.6 absorbance.
The same measure, in the same setting: in the case of B12 it was 1.9 absorbance; in that of B13, 4 absorbance.
Take B14: the “ELISA FLT3 (absorbance)” value was found to be 4 absorbance.
For the molecule B15, the “ELISA FLT3 (absorbance)” value came to 2.5 absorbance.
With B16, the “ELISA FLT3 (absorbance)” value was determined as 4 absorbance.
With B17, the “ELISA FLT3 (absorbance)” value was 2.1 absorbance.
B18: the “ELISA FLT3 (absorbance)” value turned out to be 3.3 absorbance.
The same measure, in the same setting: under B19 stands 2 absorbance; under B20, 1.9 absorbance; under B21, 2.1 absorbance.
On to B22, for which the “ELISA FLT3 (absorbance)” value is 1.4 absorbance.
The same measure, in the same setting: under B23 stands 0.5 absorbance.
Turning to B24, the “ELISA FLT3 (absorbance)” value turned out to be 0.6 absorbance.

A further test deals with T1, human FLT3 protein. Briefly: colorimetric ELISA, signal over control wells lacking FLT3.
From the text: as §1
B1 registered an FLT3/control of 5 ratio.
Molecule B2 came in with an FLT3/control of 8 ratio.
With B3, the FLT3/control turned out to be 6 ratio.
B4 displayed an FLT3/control of 16 ratio.
As for B5, the FLT3/control came out at 34 ratio.
For the molecule B6, the FLT3/control was determined as 35 ratio.
Same read-out and setting: under B7 stands 5 ratio.
As for B8, the FLT3/control turned out to be 13 ratio.
On to B9, for which the FLT3/control worked out at 45 ratio.
The molecule B10 came in with an FLT3/control of 12 ratio.
On to B11, for which the FLT3/control turned out to be 4 ratio.
In turn, B12 displayed an FLT3/control of 12 ratio.
B13 gave an FLT3/control of 28 ratio.
B14 registered an FLT3/control of 54 ratio.
In the case of B15, the FLT3/control was 31 ratio.
For the molecule B16, the FLT3/control was 17 ratio.
B17 showed an FLT3/control of 17 ratio.
For the molecule B18, the FLT3/control is 20 ratio.
B19 yielded an FLT3/control of 6 ratio.
B20 showed an FLT3/control of 15 ratio.
For B21, the FLT3/control is 17 ratio.
The molecule B22 yielded an FLT3/control of 9 ratio.
B23 gave an FLT3/control of 5 ratio.
On the same count and under the same terms, in the case of B24 it was 4 ratio.
